{"source": "paper PMC8476561", "about": "(2021)", "binders": {"B1": {"name": "Mouse angiotensin-converting enzyme 2 (receptor)", "chain": "SLTEENAKTFLNNFNQEAEDLSYQSSLASWNYNTNITEENAQKMSEAAAKWSAFYEEQSKTAQSFSLQEIQTPIIKRQLQALQQSGSSALSADKNKQLNTILNTMSTIYSTGKVCNPKNPQECLLLEPGLDEIMATSTDYNSRLWAWEGWRAEVGKQLRPLYEEYVVLKNEMARANNYNDYGDYWRGDYEAEGADGYNYNRNQLIEDVERTFAEIKPLYEHLHAYVRRKLMDTYPSYISPTGCLPAHLLGDMWGRFWTNLYPLTVPFAQKPNIDVTDAMMNQGWDAERIFQEAEKFFVSVGLPHMTQGFWANSMLTEPADGRKVVCHPTAWDLGHGDFRIKMCTKVTMDNFLTAHHEMGHIQYDMAYARQPFLLRNGANEGFHEAVGEIMSLSAATPKHLKSIGLLPSDFQEDSETEINFLLKQALTIVGTLPFTYMLEKWRWMVFRGEIPKEQWMKKWWEMKREIVGVVEPLPHDETYCDPASLFHVSNDYSFIRYYTRTIYQFQFQEALCQAAKYNGSLHKCDISNSTEAGQKLLKMLSLGNSEPWTKALENVVGARNMDVKPLLNYFQPLFDWLKEQNRNSFVGWNTEWSPYADQSIKVRISLKSALGANAYEWTNNEMFLFRSSVAYAMRKYFSIIKNQTVPFLEEDVRVSDLKPRVSFYFFVTSPQNVSDVIPRSEVEDAIRMSRGRINDVFGLNDNSLEFLGIHPTLEPPYQPPV"}}, "molecular_target": "SARS-CoV-2 RBD (wild type) (SARS-CoV-2, UniProt P0DTC2 319-541)", "assay": "SPR"}
{"binder": "B1", "values": [{"measurement": "Kd", "result": "> 1000", "unit": "µM"}]}
